For 1 substance, increase in phosphorylation by ATM immunoprecipitated from gamma-irradiated cells results are on record in EP1950297A2.

This experiment has as its target GST-fusion protein containing amino acids 327-517 of KIAA0175 (human) (UniProt Q14680). Kind of experiment: cell-based or functional assay.
UniProt Q14680, sequence (Q14680 327-517 S391Q): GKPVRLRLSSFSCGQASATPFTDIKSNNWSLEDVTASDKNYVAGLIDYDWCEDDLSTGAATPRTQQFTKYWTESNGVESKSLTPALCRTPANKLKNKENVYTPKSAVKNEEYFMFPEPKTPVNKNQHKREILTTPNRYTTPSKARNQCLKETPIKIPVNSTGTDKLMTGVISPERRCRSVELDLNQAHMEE

“Ataxia telangiectasia mutated (ATM), immunoprecipitated from cells (from UniProt Q13315 2-3056) (enzyme)” came in with an increase in phosphorylation by ATM immunoprecipitated from gamma-irradiated cells of 2 to 3 fold.
